B1: library; numbered along this chain (parent)
chain: MRKPRAAVGSGHRKQAASQEGRQKHAKNNSQAKPSACDGLARQPEEVVLQASVSSYHLFRDVAEVTAFRGSLLSWYDQEKRDLPWRRRAEDEMDLDRRAYAVWVSEVMLQQTQVATVINYYTGWMQKWPTLQDLASASLEEVNQLWAGLGYYSRGRRLQEGARKVVEELGGHMPRTAETLQQLLPGVGRYTAGAIASIAFGQATGVVDGNVARVLCRVRAIGADPSSTLVSQQLWGLAQQLVDPARPGDFNQAAMELGATVCTPQRPLCSQCPVESLCRARQRVEQEQLLASGSLSGSPDVEECAPNTGQCHLCLPPSEPWDQTLGVVNFPRKASRKPPREESSATCVLEQPGALGAQILLVQRPNSGLLAGLWEFPSVTWEPSEQLQRKALLQELQRWAGPLPATHLRHLGEVVHTFSHIKLTYQVYGLALEGQTPVTTVPPGARWLTQEEFHTAAVSTAMKKVFRVYQGQQPGTCMGSKRSQVSSPCSRKKPRMGQQVLDNFFRSHISTDAHSLNSAAQ

Variants of: B1
Assay: 8OG:A repair function score (normalized; synonymous = 0, nonsense = -1) (normalized log-likelihood score); higher = more repair activity (WT-like)
Settings: with 8OG:A DNA repair reporter (GFP) in HEK-293 MUTYH KO cells
How it was run: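 With 10 pg/ml doxycycline, MUTYH knockout HEK-293 cells carrying lentiviral MUTYH cDNA NNN codon-scan libraries were co-transfected with mCherry and an 8OG:A GFP repair reporter. Viable mCherry+ cells were sorted into GFP+ (repair) and GFP− bins at 72 h, three replicates per tile, and tile amplicons were sequenced. Per-tile Rosace fitness scores were then normalized into a repair function score anchored on synonymous and nonsense distributions. Medians were fixed at 0 for synonymous and -1 for nonsense, excluding variants under 300 counts per million at the start.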

| Variant | 8OG:A repair function score |
| --- | --- |
| MRKPRAAVGSGHRKQAASQEGRQKHAKNNSQAKPSACDGLARQPEEVVLQASVSSYHLFRDVAEVTAFRGSLLSWYDQEKRDLPWRRRAEDEMDLDRRAYAVWVSEVMLQQTQVATVINYYTGWMQKWPTLQDLASASLEEVNQLWAGLGYYSRGRRLQEGARKVVEELGGHMPRTAETLQQLLPGVGRYTAGAIASIAFGQATGVVDGNVARVLCRVRAIGADPSSTLVSQQLWGLAQQLVDPARPGDFNQAAMELGATVCTPQRPLCSQCPVESLCRQRQRVEQEQLLASGSLSGSPDVEECAPNTGQCHLCLPPSEPWDQTLGVVNFPRKASRKPPREESSATCVLEQPGALGAQILLVQRPNSGLLAGLWEFPSVTWEPSEQLQRKALLQELQRWAGPLPATHLRHLGEVVHTFSHIKLTYQVYGLALEGQTPVTTVPPGARWLTQEEFHTAAVSTAMKKVFRVYQGQQPGTCMGSKRSQVSSPCSRKKPRMGQQVLDNFFRSHISTDAHSLNSAAQ [A280Q] | -0.761 |
| MRKPRAAVGSGHRKQAASQEGRQKHAKNNSQAKPSACDGLARQPEEVVLQASVSSYHLFRDVAEVTAFRGSLLSWYDQEKRDLPWRRRAEDEMDLDRRAYAVWVSEVMLQQTQVATVINYYTGWMQKWPTLQDLASASLEEVNQLWAGLGYYSRGRRLQEGARKVVEELGGHMPRTAETLQQLLPGVGRYTAGAIASIAFGQATGVVDGNVARVLCRVRAIGADPSSTLVSQQLWGLAQQLVDPARPGDFNQAAMELGATVCTPQRPLCSQCPVESLCRSRQRVEQEQLLASGSLSGSPDVEECAPNTGQCHLCLPPSEPWDQTLGVVNFPRKASRKPPREESSATCVLEQPGALGAQILLVQRPNSGLLAGLWEFPSVTWEPSEQLQRKALLQELQRWAGPLPATHLRHLGEVVHTFSHIKLTYQVYGLALEGQTPVTTVPPGARWLTQEEFHTAAVSTAMKKVFRVYQGQQPGTCMGSKRSQVSSPCSRKKPRMGQQVLDNFFRSHISTDAHSLNSAAQ [A280S] | -0.172 |
| MRKPRAAVGSGHRKQAASQEGRQKHAKNNSQAKPSACDGLARQPEEVVLQASVSSYHLFRDVAEVTAFRGSLLSWYDQEKRDLPWRRRAEDEMDLDRRAYAVWVSEVMLQQTQVATVINYYTGWMQKWPTLQDLASASLEEVNQLWAGLGYYSRGRRLQEGARKVVEELGGHMPRTAETLQQLLPGVGRYTAGAIASIAFGQATGVVDGNVARVLCRVRAIGADPSSTLVSQQLWGLAQQLVDPARPGDFNQAAMELGATVCTPQRPLCSQCPVESLCRKRQRVEQEQLLASGSLSGSPDVEECAPNTGQCHLCLPPSEPWDQTLGVVNFPRKASRKPPREESSATCVLEQPGALGAQILLVQRPNSGLLAGLWEFPSVTWEPSEQLQRKALLQELQRWAGPLPATHLRHLGEVVHTFSHIKLTYQVYGLALEGQTPVTTVPPGARWLTQEEFHTAAVSTAMKKVFRVYQGQQPGTCMGSKRSQVSSPCSRKKPRMGQQVLDNFFRSHISTDAHSLNSAAQ [A280K] | -0.812 |
| MRKPRAAVGSGHRKQAASQEGRQKHAKNNSQAKPSACDGLARQPEEVVLQASVSSYHLFRDVAEVTAFRGSLLSWYDQEKRDLPWRRRAEDEMDLDRRAYAVWVSEVMLQQTQVATVINYYTGWMQKWPTLQDLASASLEEVNQLWAGLGYYSRGRRLQEGARKVVEELGGHMPRTAETLQQLLPGVGRYTAGAIASIAFGQATGVVDGNVARVLCRVRAIGADPSSTLVSQQLWGLAQQLVDPARPGDFNQAAMELGATVCTPQRPLCSQCPVESLCRGRQRVEQEQLLASGSLSGSPDVEECAPNTGQCHLCLPPSEPWDQTLGVVNFPRKASRKPPREESSATCVLEQPGALGAQILLVQRPNSGLLAGLWEFPSVTWEPSEQLQRKALLQELQRWAGPLPATHLRHLGEVVHTFSHIKLTYQVYGLALEGQTPVTTVPPGARWLTQEEFHTAAVSTAMKKVFRVYQGQQPGTCMGSKRSQVSSPCSRKKPRMGQQVLDNFFRSHISTDAHSLNSAAQ [A280G] | -0.137 |
| MRKPRAAVGSGHRKQAASQEGRQKHAKNNSQAKPSACDGLARQPEEVVLQASVSSYHLFRDVAEVTAFRGSLLSWYDQEKRDLPWRRRAEDEMDLDRRAYAVWVSEVMLQQTQVATVINYYTGWMQKWPTLQDLASASLEEVNQLWAGLGYYSRGRRLQEGARKVVEELGGHMPRTAETLQQLLPGVGRYTAGAIASIAFGQATGVVDGNVARVLCRVRAIGADPSSTLVSQQLWGLAQQLVDPARPGDFNQAAMELGATVCTPQRPLCSQCPVESLCRMRQRVEQEQLLASGSLSGSPDVEECAPNTGQCHLCLPPSEPWDQTLGVVNFPRKASRKPPREESSATCVLEQPGALGAQILLVQRPNSGLLAGLWEFPSVTWEPSEQLQRKALLQELQRWAGPLPATHLRHLGEVVHTFSHIKLTYQVYGLALEGQTPVTTVPPGARWLTQEEFHTAAVSTAMKKVFRVYQGQQPGTCMGSKRSQVSSPCSRKKPRMGQQVLDNFFRSHISTDAHSLNSAAQ [A280M] | -0.582 |
| MRKPRAAVGSGHRKQAASQEGRQKHAKNNSQAKPSACDGLARQPEEVVLQASVSSYHLFRDVAEVTAFRGSLLSWYDQEKRDLPWRRRAEDEMDLDRRAYAVWVSEVMLQQTQVATVINYYTGWMQKWPTLQDLASASLEEVNQLWAGLGYYSRGRRLQEGARKVVEELGGHMPRTAETLQQLLPGVGRYTAGAIASIAFGQATGVVDGNVARVLCRVRAIGADPSSTLVSQQLWGLAQQLVDPARPGDFNQAAMELGATVCTPQRPLCSQCPVESLCRLRQRVEQEQLLASGSLSGSPDVEECAPNTGQCHLCLPPSEPWDQTLGVVNFPRKASRKPPREESSATCVLEQPGALGAQILLVQRPNSGLLAGLWEFPSVTWEPSEQLQRKALLQELQRWAGPLPATHLRHLGEVVHTFSHIKLTYQVYGLALEGQTPVTTVPPGARWLTQEEFHTAAVSTAMKKVFRVYQGQQPGTCMGSKRSQVSSPCSRKKPRMGQQVLDNFFRSHISTDAHSLNSAAQ [A280L] | -0.262 |
